The values below come from patent US20200087373A1 (UNIVERSITY OF COPENHAGEN, published 2020).

The labels stand for the following.
T1: human GIP receptor (human, UniProt P48546 22-466)
T1 construct: whole, on cells; also called hGIPR
T1 sequence (looked up): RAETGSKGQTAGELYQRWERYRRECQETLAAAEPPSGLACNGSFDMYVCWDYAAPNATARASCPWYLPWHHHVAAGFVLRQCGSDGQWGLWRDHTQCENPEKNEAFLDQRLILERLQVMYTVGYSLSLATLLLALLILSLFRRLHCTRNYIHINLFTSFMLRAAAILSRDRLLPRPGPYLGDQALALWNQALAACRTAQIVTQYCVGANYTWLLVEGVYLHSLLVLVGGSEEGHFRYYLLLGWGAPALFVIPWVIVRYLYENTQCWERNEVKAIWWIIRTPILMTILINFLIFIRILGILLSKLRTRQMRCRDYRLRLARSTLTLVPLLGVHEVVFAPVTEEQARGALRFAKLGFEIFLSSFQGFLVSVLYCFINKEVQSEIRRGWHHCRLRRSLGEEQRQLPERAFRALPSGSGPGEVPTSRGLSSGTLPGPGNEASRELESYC

T2: human GIP receptor (human, UniProt P48546 22-466)
T2 sequence (looked up): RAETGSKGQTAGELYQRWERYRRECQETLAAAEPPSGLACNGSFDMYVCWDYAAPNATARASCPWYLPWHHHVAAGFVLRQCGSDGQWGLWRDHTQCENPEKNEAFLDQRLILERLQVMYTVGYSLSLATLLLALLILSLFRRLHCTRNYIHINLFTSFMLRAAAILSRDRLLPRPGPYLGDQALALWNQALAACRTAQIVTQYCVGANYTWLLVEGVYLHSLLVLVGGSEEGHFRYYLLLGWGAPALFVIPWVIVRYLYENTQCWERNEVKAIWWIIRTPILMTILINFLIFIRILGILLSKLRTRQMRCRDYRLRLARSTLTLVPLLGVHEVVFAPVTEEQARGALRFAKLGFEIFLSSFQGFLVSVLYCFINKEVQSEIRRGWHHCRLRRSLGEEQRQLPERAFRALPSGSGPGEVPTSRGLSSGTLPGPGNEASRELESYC

B1: AT145 [hGIP(5-30)NH2[H18K]-C16/18] (peptide)
peptide: TFISDYSIAMDKIK(Palmitoyl)QQDFVNWLLAQK-NH2
modifications: N-terminus assumed
SMILES: CCCCCCCCCCCCCCCC(=O)NCCCC[C@H](NC(=O)[C@@H](NC(=O)[C@H](CCCCN)NC(=O)[C@H](CC(=O)O)NC(=O)[C@H](CCSC)NC(=O)[C@H](C)NC(=O)[C@@H](NC(=O)[C@H](CO)NC(=O)[C@H](Cc1ccc(O)cc1)NC(=O)[C@H](CC(=O)O)NC(=O)[C@H](CO)NC(=O)[C@@H](NC(=O)[C@H](Cc1ccccc1)NC(=O)[C@@H](N)[C@@H](C)O)[C@@H](C)CC)[C@@H](C)CC)[C@@H](C)CC)C(=O)N[C@@H](CCC(N)=O)C(=O)N[C@@H](CCC(N)=O)C(=O)N[C@@H](CC(=O)O)C(=O)N[C@@H](Cc1ccccc1)C(=O)N[C@H](C(=O)N[C@@H](CC(N)=O)C(=O)N[C@@H](Cc1c[nH]c2ccccc12)C(=O)N[C@@H](CC(C)C)C(=O)N[C@@H](CC(C)C)C(=O)N[C@@H](C)C(=O)N[C@@H](CCC(N)=O)C(=O)N[C@@H](CCCCN)C(N)=O)C(C)C
B2: AT144 [hGIP(3-30)NH2[K16R; H18K; K30R]-C16/18] (peptide)
peptide: EGTFISDYSIAMDRIK(Palmitoyl)QQDFVNWLLAQR-NH2
modifications: N-terminus assumed
SMILES: CCCCCCCCCCCCCCCC(=O)NCCCC[C@H](NC(=O)[C@@H](NC(=O)[C@H](CCCNC(=N)N)NC(=O)[C@H](CC(=O)O)NC(=O)[C@H](CCSC)NC(=O)[C@H](C)NC(=O)[C@@H](NC(=O)[C@H](CO)NC(=O)[C@H](Cc1ccc(O)cc1)NC(=O)[C@H](CC(=O)O)NC(=O)[C@H](CO)NC(=O)[C@@H](NC(=O)[C@H](Cc1ccccc1)NC(=O)[C@@H](NC(=O)CNC(=O)[C@@H](N)CCC(=O)O)[C@@H](C)O)[C@@H](C)CC)[C@@H](C)CC)[C@@H](C)CC)C(=O)N[C@@H](CCC(N)=O)C(=O)N[C@@H](CCC(N)=O)C(=O)N[C@@H](CC(=O)O)C(=O)N[C@@H](Cc1ccccc1)C(=O)N[C@H](C(=O)N[C@@H](CC(N)=O)C(=O)N[C@@H](Cc1c[nH]c2ccccc12)C(=O)N[C@@H](CC(C)C)C(=O)N[C@@H](CC(C)C)C(=O)N[C@@H](C)C(=O)N[C@@H](CCC(N)=O)C(=O)N[C@@H](CCCNC(=N)N)C(N)=O)C(C)C
B3: AT131 [hGIP(3-30)NH2[D15E; H18A]-C16/16] (peptide)
peptide: EGTFISDYSIAMEK(Palmitoyl)IAQQDFVNWLLAQK-NH2
modifications: N-terminus assumed
SMILES: CCCCCCCCCCCCCCCC(=O)NCCCC[C@H](NC(=O)[C@H](CCC(=O)O)NC(=O)[C@H](CCSC)NC(=O)[C@H](C)NC(=O)[C@@H](NC(=O)[C@H](CO)NC(=O)[C@H](Cc1ccc(O)cc1)NC(=O)[C@H](CC(=O)O)NC(=O)[C@H](CO)NC(=O)[C@@H](NC(=O)[C@H](Cc1ccccc1)NC(=O)[C@@H](NC(=O)CNC(=O)[C@@H](N)CCC(=O)O)[C@@H](C)O)[C@@H](C)CC)[C@@H](C)CC)C(=O)N[C@H](C(=O)N[C@@H](C)C(=O)N[C@@H](CCC(N)=O)C(=O)N[C@@H](CCC(N)=O)C(=O)N[C@@H](CC(=O)O)C(=O)N[C@@H](Cc1ccccc1)C(=O)N[C@H](C(=O)N[C@@H](CC(N)=O)C(=O)N[C@@H](Cc1c[nH]c2ccccc12)C(=O)N[C@@H](CC(C)C)C(=O)N[C@@H](CC(C)C)C(=O)N[C@@H](C)C(=O)N[C@@H](CCC(N)=O)C(=O)N[C@@H](CCCCN)C(N)=O)C(C)C)[C@@H](C)CC
B4: AT158 [hGIP(3-30)NH2[H18K]-C16diacid/18] (peptide)
peptide: EGTFISDYSIAMDKIK(C16 diacid)QQDFVNWLLAQK-NH2
modifications: N-terminus assumed
SMILES: CC[C@H](C)[C@H](NC(=O)[C@H](CO)NC(=O)[C@H](Cc1ccc(O)cc1)NC(=O)[C@H](CC(=O)O)NC(=O)[C@H](CO)NC(=O)[C@@H](NC(=O)[C@H](Cc1ccccc1)NC(=O)[C@@H](NC(=O)CNC(=O)[C@@H](N)CCC(=O)O)[C@@H](C)O)[C@@H](C)CC)C(=O)N[C@@H](C)C(=O)N[C@@H](CCSC)C(=O)N[C@@H](CC(=O)O)C(=O)N[C@@H](CCCCN)C(=O)N[C@H](C(=O)N[C@@H](CCCCNC(=O)CCCCCCCCCCCCCCC(=O)O)C(=O)N[C@@H](CCC(N)=O)C(=O)N[C@@H](CCC(N)=O)C(=O)N[C@@H](CC(=O)O)C(=O)N[C@@H](Cc1ccccc1)C(=O)N[C@H](C(=O)N[C@@H](CC(N)=O)C(=O)N[C@@H](Cc1c[nH]c2ccccc12)C(=O)N[C@@H](CC(C)C)C(=O)N[C@@H](CC(C)C)C(=O)N[C@@H](C)C(=O)N[C@@H](CCC(N)=O)C(=O)N[C@@H](CCCCN)C(N)=O)C(C)C)[C@@H](C)CC
B5: AT107 [hGIP(3-30)NH2[T5W; D15E; H18A]-C16/16] (peptide)
peptide: EGWFISDYSIAMEK(Palmitoyl)IAQQDFVNWLLAQK-NH2
modifications: N-terminus assumed
SMILES: CCCCCCCCCCCCCCCC(=O)NCCCC[C@H](NC(=O)[C@H](CCC(=O)O)NC(=O)[C@H](CCSC)NC(=O)[C@H](C)NC(=O)[C@@H](NC(=O)[C@H](CO)NC(=O)[C@H](Cc1ccc(O)cc1)NC(=O)[C@H](CC(=O)O)NC(=O)[C@H](CO)NC(=O)[C@@H](NC(=O)[C@H](Cc1ccccc1)NC(=O)[C@H](Cc1c[nH]c2ccccc12)NC(=O)CNC(=O)[C@@H](N)CCC(=O)O)[C@@H](C)CC)[C@@H](C)CC)C(=O)N[C@H](C(=O)N[C@@H](C)C(=O)N[C@@H](CCC(N)=O)C(=O)N[C@@H](CCC(N)=O)C(=O)N[C@@H](CC(=O)O)C(=O)N[C@@H](Cc1ccccc1)C(=O)N[C@H](C(=O)N[C@@H](CC(N)=O)C(=O)N[C@@H](Cc1c[nH]c2ccccc12)C(=O)N[C@@H](CC(C)C)C(=O)N[C@@H](CC(C)C)C(=O)N[C@@H](C)C(=O)N[C@@H](CCC(N)=O)C(=O)N[C@@H](CCCCN)C(N)=O)C(C)C)[C@@H](C)CC
B6: AT153 [hGIP(3-30)NH2[H18R; K30R]-C12/16] (peptide)
peptide: EGTFISDYSIAMDK(Lauroyl)IRQQDFVNWLLAQR-NH2
modifications: N-terminus assumed
SMILES: CCCCCCCCCCCC(=O)NCCCC[C@H](NC(=O)[C@H](CC(=O)O)NC(=O)[C@H](CCSC)NC(=O)[C@H](C)NC(=O)[C@@H](NC(=O)[C@H](CO)NC(=O)[C@H](Cc1ccc(O)cc1)NC(=O)[C@H](CC(=O)O)NC(=O)[C@H](CO)NC(=O)[C@@H](NC(=O)[C@H](Cc1ccccc1)NC(=O)[C@@H](NC(=O)CNC(=O)[C@@H](N)CCC(=O)O)[C@@H](C)O)[C@@H](C)CC)[C@@H](C)CC)C(=O)N[C@H](C(=O)N[C@@H](CCCNC(=N)N)C(=O)N[C@@H](CCC(N)=O)C(=O)N[C@@H](CCC(N)=O)C(=O)N[C@@H](CC(=O)O)C(=O)N[C@@H](Cc1ccccc1)C(=O)N[C@H](C(=O)N[C@@H](CC(N)=O)C(=O)N[C@@H](Cc1c[nH]c2ccccc12)C(=O)N[C@@H](CC(C)C)C(=O)N[C@@H](CC(C)C)C(=O)N[C@@H](C)C(=O)N[C@@H](CCC(N)=O)C(=O)N[C@@H](CCCNC(=N)N)C(N)=O)C(C)C)[C@@H](C)CC
B7: AT143 [hGIP(3-30)NH2[M14L; H18K]-C16/18] (peptide)
peptide: EGTFISDYSIALDKIK(Palmitoyl)QQDFVNWLLAQK-NH2
modifications: N-terminus assumed
SMILES: CCCCCCCCCCCCCCCC(=O)NCCCC[C@H](NC(=O)[C@@H](NC(=O)[C@H](CCCCN)NC(=O)[C@H](CC(=O)O)NC(=O)[C@H](CC(C)C)NC(=O)[C@H](C)NC(=O)[C@@H](NC(=O)[C@H](CO)NC(=O)[C@H](Cc1ccc(O)cc1)NC(=O)[C@H](CC(=O)O)NC(=O)[C@H](CO)NC(=O)[C@@H](NC(=O)[C@H](Cc1ccccc1)NC(=O)[C@@H](NC(=O)CNC(=O)[C@@H](N)CCC(=O)O)[C@@H](C)O)[C@@H](C)CC)[C@@H](C)CC)[C@@H](C)CC)C(=O)N[C@@H](CCC(N)=O)C(=O)N[C@@H](CCC(N)=O)C(=O)N[C@@H](CC(=O)O)C(=O)N[C@@H](Cc1ccccc1)C(=O)N[C@H](C(=O)N[C@@H](CC(N)=O)C(=O)N[C@@H](Cc1c[nH]c2ccccc12)C(=O)N[C@@H](CC(C)C)C(=O)N[C@@H](CC(C)C)C(=O)N[C@@H](C)C(=O)N[C@@H](CCC(N)=O)C(=O)N[C@@H](CCCCN)C(N)=O)C(C)C

Ends that are not written are not given here. * marks the point of attachment. C16 diacid = O=C(O)CCCCCCCCCCCCCCC(=O)*; Palmitoyl = CCCCCCCCCCCCCCCC(=O)*; Lauroyl = CCCCCCCCCCCC(=O)*

The target of one assay is T1, human GIP receptor. Description: 125I-hGIP competition binding, COS-7 cells expressing hGIPR.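 Further: nonspecific binding taken as radioligand bound by untransfected cells, binding buffer with or without 2% HSA.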
Description: After incubation, the cells were washed twice in ice-cold binding buffer (+/−2% HSA) and lysed using 200 mM NaOH with 1% SDS for 30 min. Nonspecific binding was determined as the binding of radioactive ligand to untransfected cells.
For orientation: IC50 means the concentration that gives 50% inhibition. For B1, the concentration for half-maximal inhibition (IC50) was 155 nM and the “log IC50” value is -6.8 log M.

Take Lauroyl-EGTFISDYSIAMDKIHQQDFVNWLLAQK-NH2 [AT101 [hGIP(3-30)NH2-C12/3]]: the half-maximal inhibitory concentration (IC50) amounted to 9.9 nM and the “log IC50” value is -8 log M.

Consider B2, for which the IC50 is 297 nM and the “log IC50” value is -6.53 log M.

For B3, the IC50 was determined as 6510 nM and the “log IC50” value was -5.2 log M.

Take B4: the IC50 stood at 8.2 nM.

Take B5: the half-inhibitory concentration (IC50) is 5220 nM and the “log IC50” value is -5.3 log M.

Consider B6, for which the IC50 was found to be 316 nM and the “log IC50” value was -7 log M.

The molecule B7 came in with an IC50 of 80 nM.

Take EGTFISDYSIAMEKIAQQDFVNWLLAQK(C12 fatty acyl)-NH2 [AT130 [hGIP(3-30)NH2[D15E; H18A]-C12/30]]: the half-maximal inhibitory concentration (IC50) was determined as 1210 nM and the “log IC50” value was -5.9 log M.

A further assay deals with T2, human GIP receptor. Description: cell-based or functional assay.
As to EGTFISDYSIAMDKIHQQDFVNWLLAQK(Lauroyl)-NH2 [AT103 [hGIP(3-30)NH2-C12/30]], the “cAMP agonism, EC50 (log)” value is -5.3 log M; the “cAMP agonism, Emax” value turned out to be 7%; the “cAMP agonism, nM (EC50)” value worked out at 4880 nM; the “cAMP antagonism, log (IC50)” value was -6.9 log M. For the same molecule, the “cAMP antagonism, nM (IC50)” value was 121 nM.

On to Palmitoyl-EGTFISDYSIAMDKIHQQDFVNWLLAQK-NH2 [AT104 [hGIP(3-30)NH2-C16/3]], for which the “cAMP agonism, EC50 (log)” value was -8.6 log M; the “cAMP agonism, Emax” value amounted to 81%; the “cAMP agonism, nM (EC50)” value came to 2.4 nM.
